The RNAGym collection of RNA variant scans (doi:10.1093/nar/gkz1192)

B1: CPEB3 Ribozyme (parent)
chain: UAACAGGGGGCCACAGCAGAAGCGUUCACGUCGCAGCCCCUGUCAGAUUCUGGUGAAUCUGCGAAUUCUGCUGUAUAUCUC

Variants of: B1
Test: self-cleavage, relative activity (ratio to wild type); higher = more cleavage; in vitro, sequencing
Procedure, shortened: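 Libraries of CPEB3 self-cleaving ribozyme mutants came from rounds of error-prone PCR and carried barcodes, which DNA sequencing matched to variants. In vitro transcription used T7 RNA polymerase at 37°C for 5 hours, with a further 15 min in DNase I before EDTA stopped the reaction; the ribozymes cleaved during both steps. The RNA was reverse transcribed with template switching and sequenced on Illumina. Relative activity is the cleaved/total read fraction of a variant divided by that of the unmutated ribozyme, averaged over three batches with at least 5 reads.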

For UAACAGGGGGCCACAGCGGAAGCGUUCACGUCGCAGCCCCUGUCAGAUUCUGGUGAAUCUGCGAAUUCCGCUGUAUAUCUC [A18G U69C], which self-cleavage is on record?
The self-cleavage was 1.18.

With UAACAGGGGGCCACAGCGGAAGCGUUCACGUCGCAGCCCCUGUCAGAUUCUGGUGAAUCUGCGAAUUCGGCUGUAUAUCUC [A18G U69G] as the variant, how does the self-cleavage read?
The self-cleavage was 0.49.

For UAACAGGGGGCCACAGCGGAAGCGUUCACGUCGCAGCCCCUGUCAGAUUCUGGUGAAUCUGCGAAUUCAGCUGUAUAUCUC [A18G U69A], which self-cleavage is on record?
Its self-cleavage is 0.48.

Which self-cleavage does the source give for UAACAGGGGGCCACAGCGGAAGCGUUCACGUCGCAGCCCCUGUCAGAUUCUGGUGAAUCUGCGAAUUCUGCUGCAUAUCUC [A18G U74C] here?
Its self-cleavage is 1.1.

Which self-cleavage does the source give for UAACAGGGGGCCACAGCGGAAGCGUUCACGUCGCAGCCCCUGUCAGAUUCUGGUGAAUCUGCGAAUUCUGCUGGAUAUCUC [A18G U74G] here?
The self-cleavage was 1.21.

Which self-cleavage does the source give for UAACAGGGGGCCACAGCGGAAGCGUUCACGUCGCAGCCCCUGUCAGAUUCUGGUGAAUCUGCGAAUUCUGCUGAAUAUCUC [A18G U74A] here?
The self-cleavage was 0.95.

With UAACAGGGGGCCACAGCGGAAGCGUUCACGUCGCAGCCCCUGUCAGAUUCUGGUGAAUCUGCGAAUUCUGCUGUAUAUCCC [A18G U80C] as the variant, how does the self-cleavage read?
The self-cleavage was 0.86.

For UAACAGGGGGCCACAGCGGAAGCGUUCACGUCGCAGCCCCUGUCAGAUUCUGGUGAAUCUGCGAAUUCUGCUGUAUAUCAC [A18G U80A], which self-cleavage is on record?
The self-cleavage was 0.9.

Which self-cleavage does the source give for UAACAGGGGGCCACAGCUGAAGCGUUCACGUCGCAGCCCCUGUCCGAUUCUGGUGAAUCUGCGAAUUCUGCUGUAUAUCUC [A18U A45C] here?
The self-cleavage was 0.16.

With UAACAGGGGGCCACAGCGGAAGCGUUCACGUCGCAGCCCCUGUCAGAUUCUGGUGAAUCUGCGAAUUCUGCUGUAUAGCUC [A18G U78G] as the variant, how does the self-cleavage read?
Its self-cleavage is 0.53.

For UAACAGGGGGCCACAGCGGAAGCGUUCACGUCGCAGCCCCUGUCAGAUUCUGGUGAAUCUGCGAAUUCUGCUGUAUACCUC [A18G U78C], which self-cleavage is on record?
The self-cleavage was 0.82.

Which self-cleavage does the source give for UAACAGGGGGCCACAGCGGAAGCGUUCACGUCGCAGCCCCUGUCAGAUUCUGGUGAAUCUGCGAAUUCUGCUGUAUAACUC [A18G U78A] here?
The self-cleavage was 0.82.

With UAACAGGGGGCCACAGCUGACGCGUUCACGUCGCAGCCCCUGUCAGAUUCUGGUGAAUCUGCGAAUUCUGCUGUAUAUCUC [A18U A21C] as the variant, how does the self-cleavage read?
The self-cleavage was 0.2.

For UAACAGGGGGCCACAGCUGAUGCGUUCACGUCGCAGCCCCUGUCAGAUUCUGGUGAAUCUGCGAAUUCUGCUGUAUAUCUC [A18U A21U], which self-cleavage is on record?
The self-cleavage was 0.28.

Which self-cleavage does the source give for UAACAGGGGGCCACAGCUGAGGCGUUCACGUCGCAGCCCCUGUCAGAUUCUGGUGAAUCUGCGAAUUCUGCUGUAUAUCUC [A18U A21G] here?
Its self-cleavage is 0.25.

With UAACAGGGGGCCACAGCUGAAGCGUUCUCGUCGCAGCCCCUGUCAGAUUCUGGUGAAUCUGCGAAUUCUGCUGUAUAUCUC [A18U A28U] as the variant, how does the self-cleavage read?
The self-cleavage was 0.29.

With UAACAGGGGGCCACAGCUGAAGCGUUCGCGUCGCAGCCCCUGUCAGAUUCUGGUGAAUCUGCGAAUUCUGCUGUAUAUCUC [A18U A28G] as the variant, how does the self-cleavage read?
The self-cleavage was 0.26.

With UAACAGGGGGCCACAGCUGAAGCGUUCCCGUCGCAGCCCCUGUCAGAUUCUGGUGAAUCUGCGAAUUCUGCUGUAUAUCUC [A18U A28C] as the variant, how does the self-cleavage read?
The self-cleavage was 0.15.

Which self-cleavage does the source give for UAACAGGGGGCCACAGCGGAAGCGUUCACGUCGCAGCCCCUGUCAGAUUCUGGUGAAUCUGCGAAAUCUGCUGUAUAUCUC [A18G U66A] here?
Its self-cleavage is 0.31.

Which self-cleavage does the source give for UAACAGGGGGCCACAGCGGAAGCGUUCACGUCGCAGCCCCUGUCAGAUUCUGGUGAAUCUGCGAACUCUGCUGUAUAUCUC [A18G U66C] here?
The self-cleavage was 0.29.

For UAACAGGGGGCCACAGCUGUAGCGUUCACGUCGCAGCCCCUGUCAGAUUCUGGUGAAUCUGCGAAUUCUGCUGUAUAUCUC [A18U A20U], which self-cleavage is on record?
The self-cleavage was 0.25.

Which self-cleavage does the source give for UAACAGGGGGCCACAGCUGGAGCGUUCACGUCGCAGCCCCUGUCAGAUUCUGGUGAAUCUGCGAAUUCUGCUGUAUAUCUC [A18U A20G] here?
The self-cleavage was 0.34.

Which self-cleavage does the source give for UAACAGGGGGCCACAGCGGAAGCGUUCACGUCGCAGCCCCUGUCAGAUUCUGGUGAAUCUGCGAAUACUGCUGUAUAUCUC [A18G U67A] here?
The self-cleavage was 0.31.

For UAACAGGGGGCCACAGCGGAAGCGUUCACGUCGCAGCCCCUGUCAGAUUCUGGUGAAUCUGCGAAUCCUGCUGUAUAUCUC [A18G U67C], which self-cleavage is on record?
Its self-cleavage is 0.26.

With UAACAGGGGGCCACAGCGGAAGCGUUCACGUCGCAGCCCCUGUCAGAUUCUGGUGAAUCUGCGAAUGCUGCUGUAUAUCUC [A18G U67G] as the variant, how does the self-cleavage read?
The self-cleavage was 0.28.

Which self-cleavage does the source give for UAACAGGGGGCCACAGCGGAAGCGUUCACGUCGCAGCCCCUGUCAGAUUCUGGUGAAUCUGCGAAUUCUGCUGUAAAUCUC [A18G U76A] here?
Its self-cleavage is 0.73.

With UAACAGGGGGCCACAGCGGAAGCGUUCACGUCGCAGCCCCUGUCAGAUUCUGGUGAAUCUGCGAAUUCUGCUGUACAUCUC [A18G U76C] as the variant, how does the self-cleavage read?
The self-cleavage was 0.58.

Which self-cleavage does the source give for UAACAGGGGGCCACAGCUGAAGCGUUCACGUCGCCGCCCCUGUCAGAUUCUGGUGAAUCUGCGAAUUCUGCUGUAUAUCUC [A18U A35C] here?
Its self-cleavage is 0.34.

Which self-cleavage does the source give for UAACAGGGGGCCACAGCUGAAGCGUUCACGUCGCUGCCCCUGUCAGAUUCUGGUGAAUCUGCGAAUUCUGCUGUAUAUCUC [A18U A35U] here?
Its self-cleavage is 0.22.

For UAACAGGGGGCCACAGCUGAAGCGUUCACGUCGCGGCCCCUGUCAGAUUCUGGUGAAUCUGCGAAUUCUGCUGUAUAUCUC [A18U A35G], which self-cleavage is on record?
Its self-cleavage is 0.7.

For UAACAGGGGGCCACAGCGGAAGCGUUCACGUCGCAGCCCCUGUCAGAUUCUGGUGAAUCUGCGAAUUCUGCGGUAUAUCUC [A18G U72G], which self-cleavage is on record?
The self-cleavage was 0.29.

For UAACAGGGGGCCACAGCGGAAGCGUUCACGUCGCAGCCCCUGUCAGAUUCUGGUGAAUCUGCGAAUUCUGCAGUAUAUCUC [A18G U72A], which self-cleavage is on record?
The self-cleavage was 0.35.

With UAACAGGGGGCCACAGCGGAAGCGUUCACGUCGCAGCCCCUGUCAGAUUCUGGUGAAUCUGCGAAUUCUGCCGUAUAUCUC [A18G U72C] as the variant, how does the self-cleavage read?
Its self-cleavage is 0.68.

Which self-cleavage does the source give for UAACAGGGGGCCACAGCUGAAGCGUUCACGUCGCAGCCCCUGUCAGAUUCUGGUGAAUCUGCGAAUUCUGCUGUAUAUCUC [A18U] here?
Its self-cleavage is 0.4.
